B1: HDV Ribozyme (parent)
chain: GGCCGGCAUGGUCCCAGCCUCCUCGCUGGCGCCGGCUGGGCAACAUUCCGAGGGGACCGUCCCCUCGGUAAUGGCGAAUGGGACCCA

Variants of: B1
Assay: self-cleavage, relative activity (ratio to wild type); higher = more cleavage; co-transcriptional

Variant	self-cleavage
G29C C75U	0.0287
G29C C75G	0.131
G28C C86U	0
G28U U60G	0.123
G28U G40U	0.0277
G28U G40C	0.215
G28U C58U	0.185
G28U C58A	0.208
G28U U37A	0.0773
G29C G59U	0.163
G29C G59A	0.0332
G29C G81C	0.18
G28U A42G	0.0426
G29C U37C	0.0898
G29C U37G	0.128
G29C U37A	0.201
G29C G68U	0.0302
G29C G82U	0.0959
G28U C86U	0.0594
G28U C86A	0
G28C G50U	0.0519
G28C G76U	0.0378
G29C G74C	0.032
G29C U60A	0.0426

Variant	self-cleavage
G28U G68U	0.0386
G28U G68A	0.182
G29C G35C	0.0405
G28C G67U	0
G28C G67A	0.0707
G28C G67C	0.0923
G29A G81C	0.0314
G29A G81A	0.138
G29A G53C	0.134
G29A G53A	0.217
G28C G82C	0.0475
G29A U46A	0.156
G29C U65A	0.095
G29C U65G	0.123
G28U C61A	0.201
G29C C48A	0
G28C G54C	0.0519
G28C G54U	0.0248
G28U A51U	0.166
G28U G39U	0.119
G29C U69C	0
G29C U69G	0.0504
G28U G50A	0.0791
G29A G50A	0.134

Variant	self-cleavage
G29A G50U	0.241
G29C U46G	0.0723
G29A C61G	0.107
G29A C57G	0.267
G29A U69C	0.131
G29A C63A	0.147
G28C G68A	0.0475
G29C G38U	0.0627
G29A C44U	0.151
G29A G74C	0.0831
G29A G59U	0.149
G29A G82A	0.109
G28C U37C	0.101
G29C C44G	0
G29A C75G	0.0346
G28U U69G	0.208
G29A C62U	0.159
G29A A71G	0.032
G28U A77G	0.111
G28C U46A	0.107
G29A C66A	0.191
G28U A83G	0.0569
G28C G29C	0.0504
G29A G73U	0.112

Variant	self-cleavage
G28C U69G	0.156
G28C U69C	0.101
G28C U69A	0.123
G28U G73U	0.169
G28C U72A	0.151
G29C A77U	0.0369
G28U A71G	0.0554
G28U G31A	0.0554
G28C G38A	0.0415
G29C U79C	0.138
G29C G39U	0.0992
G29C A51C	0.231
G29C A56U	0.0755
G28U C62G	0.0415
G28U A45U	0.193
G28U C41G	0.116
G28U C41A	0.138
G29C C62U	0
G29C C62A	0
G29A U47G	0.0978
G28U G52U	0.211
G28U G52A	0.0733
G28U G81U	0.202
G29C A43C	0.0489

Variant	self-cleavage
G29C C85U	0.108
G29C A83U	0.0462
G29C A83G	0.0863
G29A A83C	0.148
G29C C57U	0.0604
G29A U37G	0.0723
G29C G67A	0.0739
G29C G67U	0.0773
G28U C32U	0.041
G29C G31C	0
G28C U65G	0.0665
G28C U65A	0.104
G29A C85G	0.119
G29C U72C	0
G29C A78C	0.0519
G29C G52A	0.0615
G29C G54C	0.0692
G28U A78U	0.0723
G29C G40A	0.0804
G29A G34C	0.148
G29A G34A	0.131
G29C C58G	0.156
G29C C58U	0.104
G29A A42G	0.0415

Variant	self-cleavage
G29A A42U	0.222
G29A C58A	0.318
G28C G31C	0
G28C G31A	0.0739
G29A G52U	0.153
G29A G52C	0.197
G28C G81A	0.104
G29C C64U	0.0594
G29C C66U	0.0573
G29A A77U	0.187
G29C G50C	0
G29C G50A	0.0277
G29A C49U	0.237
G29C G76A	0.0545
G28U G80A	0.0681
G28U G59U	0.106
G28U G59C	0.136
G28C G74A	0.108
G28U G35A	0.0213
G28U G35C	0.13
G28U G29A	0.0755
G29C U47G	0
G29C U47A	0.214
G29C U47C	0.0554

Variant	self-cleavage
G29C G80A	0.0692
G29C G80U	0.0953
G28C G34A	0.146
G29C A71G	0
G29C A71U	0.122
G29C C33G	0.185
G29C C33U	0.0941
G28C G52A	0.119
G29A G54U	0.119
G29A C41A	0.0405
G29A C41U	0.25
G29A A78U	0.143
G28U C75G	0.0302
G28U C75U	0.136
G28U A70C	0.131
G28U A70G	0.0707
G29A U79G	0.154
G28U C57G	0.0773
G29C A45U	0.0519
G29A	0.186
G29C	0.1
G29A C64G	0.202
G29A C64A	0.22

Reference: the RNAGym collection of RNA variant scans (doi:10.7554/elife.80360)
